# Biological target: T1, recombinant human ErbB2/Fc chimera (human, UniProt P04626 23-652)
# T1 construct: bought from R&D Systems; also called rhErbB2-Fc; rhErb2-Fc; Fc part of the bought chimera not given; not described
# Experiment: ELISA, coated ErbB2/Fc
row,Binder,binding result
1,"12D31/1-115 (VHH, C-term myc-His6 tag) VHH: EVQLVESGGGLVQPGGSLRLSCAASRNIFDFNDMGWYRQGPGKEREFVALINVGGVAKYEDSVKGRFTISRDNAENTVYLQMNNLKPEDMAVYYCNARILSRNYWGQGNQVTVSS",binds
2,"22B71/1-114 (VHH, C-term myc-His6 tag) VHH: EVQLVESGGAFVQPGGSLRLSCAASGSDVWFNVMGWYRQGPGQQLELVASITYGGNINYGDPVKGRFSISRDNALKTVYLQMNSLKPEDTAVYYCYADLPSRLWGQGTQVTVSS",binds
3,"11B81/1-126 (VHH, C-term myc-His6 tag) VHH: EVQLVESGGGLVQAGGSLRLSCAASGRPVNNYIMGWFRQALGQGREFVAAINRNGATAAYADSVKGRFTISRDNAEDLLYLQMNLLKPEDTAVYYCAANSDSGFDSYSVWAAYEYWGQGTQVTVSS",binds
4,"13E101/1-128 (VHH, C-term myc-His6 tag) VHH: EVQLVESGGGLVQAGGSLRLSCAVSGRTFNNDHMGWFRQAPGTERELVAATGRRGGPTYYADSVKGRFTISRDNAESTVYLQMNSLKAEDTAVYYCAANRYYCSTYGCLSTPRQYDYWGQGTQVTVSS",binds
5,"12D61/1-116 (VHH, C-term myc-His6 tag) VHH: EVQLVESGGGLVQPGGSLRLSCAASRSIFSPNVVGWYRQAPGKQRELVAAVTSGGITNYADSVKGRFTISRDNAKNTLYLQMNSLKAEDTAVYYCNARERGIYDSWGQGTQVTVSS",binds
6,"13G31/1-125 (VHH, C-term myc-His6 tag) VHH: EVQLVESGGGLVQAGGSLRLSCAASGGTFSRYKMGWFRQAPGKEREFVAASRWSGGIKYHADSVKGRFTISRDDAKNSIYLQMNTLKPEDTAVYYCAADDYLGGDNWYLGPYDSWGQGTQVTVSS",binds
7,"14H91/1-127 (VHH, C-term myc-His6 tag) VHH: EVQLVESGGGLVQAGGSLRLSCAASGRTFSRDVMGWFRQAPGKEREFVAAKTWSGASTYYADSVRGRFTISRDNAKNAVYLQMNSLKPEDTAVYYCAARDSSTLDSTYYVGGSYNYWGRGTQVTVSS",binds
8,"22B610/1-120 (VHH, C-term myc-His6 tag) VHH: EVQLVESGGGLVQPGGSLRLSCAASGSIFSINAMGWYRPAPGKQRELVARITSTGSTNYADSVKGRFTISRDNAKNTVYLQMNSLKPEDTAVYYCNADVSPSYGSRWYGWGQGTQVTVSS",binds
9,"13G51/1-127 (VHH, C-term myc-His6 tag) VHH: EVQLVESGGGLVQAGGSLSLSCAASGGTFNGRAVGWFRQAPGEEREFVTGISWSGGSTDYADSVKGRFTISRDNSKNTVSLQMNSLKPEDTAVYYCAASRRFYSGLVYYSVDAYENWGQGTQVTVSS",binds
10,"12D92/1-123 (VHH, C-term myc-His6 tag) VHH: EVQLVESGGGLVQAGGSLRLSCAASGRTYNMAWFRQAPGKEREFVAAMNWSGGSTKYAESVKGRFTISRANDNNPLYLQMNTLKPEDTAVYYCAATNRWYTGVYDLPSRYEYWGQGTQVTVSS",binds
11,"11A43/1-123 (VHH, C-term myc-His6 tag) VHH: EVQLVESGGGLVQAGGSLRLSCAASGSIFRVNHMGWYRQAPGKQREFVAAITSDHITWYADAVKGRFTISRDNAKNTVTLQMNSLRPEDTAVYYCAADPLLFYGVGSADVDYWGQGTQVTVSS",binds
12,"22C65/1-124 (VHH, C-term myc-His6 tag) VHH: EVQLVESGGGLVQAGGSLRLSCAVSGFLFDSYAMGWFRQAPGKEREFVAAIRWSGSATDYSDSVKGRFTISRDNAKNTVYLQMNSLIPEDTAVYYCAARKTYRSLTYYGEYDSWGQGTQVTVSS",binds
13,"13E61/1-123 (VHH, C-term myc-His6 tag) VHH: EVQLVESGGGLVQAGGSLRLSCTASGQTFNMGWFRQAPGKEREFVAAISWSQYNTKYADSVKGRFTISRDNAINSLYLQMDTLKPEDTAVYYCAATNRWFSAVYDLPSRYTYWGQGTQVTVSS",binds
14,"11B71/1-126 (VHH, C-term myc-His6 tag) VHH: EVQLVESGGGLVQAGGSLRLSCAASGRTFERYAMGWFRQAPGKEREFVATISWSGGRDTVYADSVKGRFTISRDNAKNTVYLQMNSLKPEDTAVYYCAAHKRTYELGAHSTDFGSWGQGTQVTVSS",binds
15,"11B21/1-124 (VHH, C-term myc-His6 tag) VHH: EVQLVESGGGLVQAGGSLRLSCAASGRTFSMYLMGWFRQAPGKEREFVSTINRRGGNTYYADSVKGRFTISRDNARNTVYLQMNSLKPEDTAVYYCAAGGHLLGYDVQWEPDYWGQGTQVTVSS",binds
16,"11A81/1-125 (VHH, C-term myc-His6 tag) VHH: EVQLVESGGALVQPGGSLRLSCAASDSIRSINIMGWYRQAPGKQREFVAAVTEDGSINYAESVKGRFTISRDKAKNALYLQMNSLKPEDMAVYYCNADRVLYYSDSRYYTGSNYWGQGTQVTVSS",binds
17,"13G61/1-118 (VHH, C-term myc-His6 tag) VHH: EVQLVESGGGVVQAGGSLRLSCAPSGRTFSSYVMGWVRQAPGKAREFVAGITRNSGRTRYADSVKGRFTISRDNADNTVTLQMNSLKPEDTAVYYCAGGIDLYTFHYFGQGTQVTVSS",binds

row,Binder,binding result
1,"14H41/1-118 (VHH, C-term myc-His6 tag) VHH: EVQLVESGGGLVQAGGSLRLSCAPSGRTFSSYVMGWVRQAPGKAREFVAGITRNSIRTRYADSVKGRFTISRDNADNTVTLQMNSLKPEDTAVYYCAGGIDLYTFDYFGQGTQVTVSS",binds
2,"22B85/1-120 (VHH, C-term myc-His6 tag) VHH: EVQLVESGGGLVRPGGSLRLSCATSGSDIGINAMGWYRQAPGNQRELVATITGSTGTTYADSVKGRFAISRDGAKNTVYLQMDSLKPEDTAVYYCNLRVYTGTYGGRNYWGQGTQVTVSS",binds
3,"12C81/1-117 (VHH, C-term myc-His6 tag) VHH: EVQLVESGGGLVQPGGSLRLSCAGSGNIVRDNTMAWYRQAPGNQRDLVATINVGGGTYYAGPVKGRFTISRDNAKNSVYLQMNSLKPEDTSVYYCNVISGLVQRDYWGQGTQVTVSS",binds
4,"12C101/1-111 (VHH, C-term myc-His6 tag) VHH: EVQLVESGGGLVQAGGSLRLSCVASGRTLSTTGVGWFRQAPGKERESVATIFVGGTTYYSDSVKGRFTISRDNARNAVNPQMNNLKPEDTAVYYCTIGSYRGQGTQVTVSS",binds
5,"13F42/1-111 (VHH, C-term myc-His6 tag) VHH: EVQLVESGGGLVQAGGSLRLSCVASGRTLSTTGVGWFRQAPGKGRESVATIFVGGTTYYSDSVKGRFTISRDNAKNAVNLQMSNLKPEDTALHYCTIGSYRGQGTQVTVSS",binds
6,"13F101/1-124 (VHH, C-term myc-His6 tag) VHH: EVQLVESGGGLVQAGGSLRLSCQLSGGTVSDLHMGWFRQAPGKEREFVGFTRWPSITYIAEHVKGRFTISRDNAKNTVYLQMNSLEREDTAVYYCAADRSYSIDYRHPDSYSYWGQGTQVTVSS",binds
7,"21A121/1-123 (VHH, C-term myc-His6 tag) VHH: EVQLVESGGGLVQAGGSLRLSCTASGRAFNMGWFRQAPGKEREFVAGVNWGGGSTKVADSVKERFTISRDYDNSPVYLQMNTLKPEDTAVYYCAATSRWYSAVYDLPTRYDYWGQGTQVTVSS",binds
8,"11B12/1-118 (VHH, C-term myc-His6 tag) VHH: EVQLVESGGGLVQAGGSLRLSCAASGRALINYAMGWFRQAPGKEREFVSAINWSGSHTDYGDSVKGRFAISRDNAKNTVYLQMHSLKPEDTAVYHCATGYSLPAFDSWGPGTQVTVSS",binds
9,"11A71/1-125 (VHH, C-term myc-His6 tag) VHH: EVQLVESGGGLVQPGGSLRLSCAASRSIRSVSVMGWYRLAPGNQRELVATITADGITNYADSVKGRFTVSRDNGRNTVYLQMNSLKPEDTAVYYCNVDRLLYYSSGYYQTSVDVWGQGTQVTVSS",binds
10,"12C121/1-126 (VHH, C-term myc-His6 tag) VHH: EVQLVESGGDLVQPGESLRLSCAVSGVTVDYSGIGWFRQAPEKEREAVSCIESGDGTTTYVDSVKGRFTISRDNAKNAVYLQMNSLKPEDTGVYYCATAVFVDSGDFSVCRGVGYWGKGTQVTVSS",binds
11,"11C11/1-121 (VHH, C-term myc-His6 tag) VHH: EVQLVESGGGLVQAGGSLRLSCAASGRTFSAYAMGWFRQAPGKERESVATIRWTGGSSSTSYADSVKGRFTISKNTAENTVYLQMNSLKPEDTAVYYCAVLLTVWDTYKYWGQGTQVTVSS",binds
12,"12C32/1-127 (VHH, C-term myc-His6 tag) VHH: EMQLVESGGGLVQAGGSLRLSCATSERTFSTYTMAWFRQAPGKEREFVVAIKSSDNSTSYRDSVKGRFTISRDNAKSTMYLQMNSLKPEDTAVYYCAARREYSTIYTARYPGEYVYWGQGTQVTVSS",binds
13,"14H21/1-125 (VHH, C-term myc-His6 tag) VHH: EVQLVESGGGLVQAGGSLRLSCVRSGGYFGSYHIGWFRQAPGNEREFVAAITWNGASTSYADSVKGRFTISRSIAENTVYLQMNKVKPEDTAVYYCAARMYGSDWLPRPEDFDSWGQGTQVTVSS",binds
14,"11B51/1-127 (VHH, C-term myc-His6 tag) VHH: EVQLVESGGGLVQAGGSLRLSCAASGGTFSGRGMGWFRQAPGKEREFVAAVSWSGGNTYYADSVKGRFTISRDNAKSTVYLQMDSLKPEDTAVYYCAASRRFYSGLYYYTDDAYEYWGQGTQVTVSS",binds
15,"11B121/1-127 (VHH, C-term myc-His6 tag) VHH: EVQLVESGGGLVQPGGSLRLSCAASGSSASINTMGWYRQAPGEQRELVAEITEGGIINYTDSVKGRFTISRDNAKNTVYLEMNNLKPEDTAVYYCNADRALYRNYSDGRYYTGYDYWGQGTQVTVSS",binds
16,"11B91/1-125 (VHH, C-term myc-His6 tag) VHH: EVQLVESGGALVQPGGSLRLSCAASGSIRSINTMGWYRQAPGNQREFVAAVTEGGTTSYAASVKGRFTISRDKAKNTVLLQMDSLKPEDTAVYYCNADRFLYYSAGRYDTGSDIWGQGTQVTVSS",binds

# From patent US20150232562A1 (Ablynx, published 2015)
